Patent US20170081400A1 (CEPHALON, published 2017)
Residue numbers refer to the chain shown, from its start. Each block holds one binder with its values, some of them ahead of it.

Columns and labels:
[1] = target: T1, human TL1A extracellular domain with N-terminal HIS and FLAG tag (human, UniProt O95150 72-251); experiment: SPR Run 7, antibody on Protein A, TL1A 5 ug/mL, timepoint 44
T1 construct: the whole entry is named; also called TNFSF15
T1 sequence: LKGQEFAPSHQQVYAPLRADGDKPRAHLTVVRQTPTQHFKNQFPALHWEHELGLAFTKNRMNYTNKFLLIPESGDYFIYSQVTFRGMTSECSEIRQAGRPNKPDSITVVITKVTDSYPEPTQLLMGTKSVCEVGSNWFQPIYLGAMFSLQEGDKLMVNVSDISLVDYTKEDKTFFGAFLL
Source text: (§1) 1.5. Antibody expression and antigen binding as determined by SPR. Using a CM5 sensor chip (GE Healthcare) Protein A (Pierce) was coupled to the chip surface using an amine coupling kit (GE Healthcare). Protein A was coupled on flow cell 1 and 2 (or alternatively 3 and 4) using a BIACORE® T200. […] The amount of supernatant or purified protein (as well as the concentration) injected during the capture stage varied between runs and is specified in the header of the Tables 3-11. At the end of injection of the supernatant or purified antibody the change in response units was measured. This value was reported as Capture Level in Tables 3-11. […] The response units were measured prior to the end of the dissociation phase. […] The sensorgrams were double referenced (flow cell 2 is subtracted from flow cell 1 and a buffer blank). As there were a large number of antibody variants to screen, these were screened across different runs (Tables 3-11). […] A summary of the conditions used in each run is below:
(§2) 2.1. […] In some experiment the antibodies were purified using Protein A chromatography (See 1.4) and purified antibodies were used in BIACORE® (GE Healthcare) experiments.

[2] = target: T1, human TL1A extracellular domain with …; experiment: SPR Run 7, antibody on Protein A, TL1A 5 ug/mL, timepoint 220
Source text: as §1, §2

TL1A Binding Level (Early) [1]: 146 RU | TL1A Binding Level (Late) [2]: 136 RU
B1: 320-527 (antibody, human IgG1, name in Kabat numbering, V domains shown)
VH: QVQLVQSGAEVKKPGASVKVSCKASGYTFTSYDINWVRQAPGQGLEWMGWLNPNKGNTGYAQKFQGRVTMTADRSTSTAYMELSSLRSEDTAVYYCAREVPETAAFEYWGQGTLVTVSS
VL: QSVLTQPPSVSGAPGQRVTISCTSSSSDIGAGLGVHWYQQLPGTAPKLLIEGYYNRPSGVPDRFSGSKSGTSASLTITGLLPEDEGDYYCQSYDGTLSALFGGGTKLTVLG
notes: full-length human IgG1, lambda

TL1A Binding Level (Early) [1]: 72 RU | TL1A Binding Level (Late) [2]: 67 RU
B2: 320-564 (antibody, human IgG1, name in Kabat numbering, V domains shown)
VH: B1 VH with K55S, G59W
VL: B1 VL
notes: as for B1

TL1A Binding Level (Early) [1]: 133 RU | TL1A Binding Level (Late) [2]: 123 RU
B3: 320-537 (antibody, human IgG1, name in Kabat numbering, V domains shown)
VH: B1 VH with K55S, G56L
VL: B1 VL
notes: as for B1

TL1A Binding Level (Early) [1]: 50 RU | TL1A Binding Level (Late) [2]: 45 RU
B4: 320-549 (antibody, human IgG1, name in Kabat numbering, V domains shown)
VH: B1 VH with K55S, T58S
VL: B1 VL
notes: as for B1

TL1A Binding Level (Early) [1]: 109 RU | TL1A Binding Level (Late) [2]: 100 RU
B5: 320-545 (antibody, human IgG1, name in Kabat numbering, V domains shown)
VH: B1 VH with K55S, N57L
VL: B1 VL
notes: as for B1

TL1A Binding Level (Early) [1]: 100 RU | TL1A Binding Level (Late) [2]: 90 RU
B6: 320-556 (antibody, human IgG1, name in Kabat numbering, V domains shown)
VH: B1 VH with K55S, T58Y
VL: B1 VL
notes: as for B1

TL1A Binding Level (Early) [1]: 67 RU | TL1A Binding Level (Late) [2]: 61 RU
B7: 320-546 (antibody, human IgG1, name in Kabat numbering, V domains shown)
VH: B1 VH with K55S, N57W
VL: B1 VL
notes: as for B1

TL1A Binding Level (Early) [1]: 100 RU | TL1A Binding Level (Late) [2]: 92 RU
B8: 320-540 (antibody, human IgG1, name in Kabat numbering, V domains shown)
VH: B1 VH with K55S, N57S
VL: B1 VL
notes: as for B1

TL1A Binding Level (Early) [1]: 26 RU | TL1A Binding Level (Late) [2]: 6 RU
B9: 320-557 (antibody, human IgG1, name in Kabat numbering, V domains shown)
VH: B1 VH with K55S, G59A
VL: B1 VL
notes: as for B1

TL1A Binding Level (Early) [1]: 10 RU | TL1A Binding Level (Late) [2]: 7 RU
B10: 320-532 (antibody, human IgG1, name in Kabat numbering, V domains shown)
VH: B1 VH with K55S, G56S
VL: B1 VL
notes: as for B1

TL1A Binding Level (Early) [1]: 115 RU | TL1A Binding Level (Late) [2]: 105 RU
B11: 320-536 (antibody, human IgG1, name in Kabat numbering, V domains shown)
VH: B1 VH with K55S, G56K
VL: B1 VL
notes: as for B1

TL1A Binding Level (Early) [1]: 109 RU | TL1A Binding Level (Late) [2]: 102 RU
B12: 320-534 (antibody, human IgG1, name in Kabat numbering, V domains shown)
VH: B1 VH with K55S, G56D
VL: B1 VL
notes: as for B1

TL1A Binding Level (Early) [1]: 36 RU | TL1A Binding Level (Late) [2]: 9 RU
B13: 320-560 (antibody, human IgG1, name in Kabat numbering, V domains shown)
VH: B1 VH with K55S, G59D
VL: B1 VL
notes: as for B1

TL1A Binding Level (Early) [1]: 77 RU | TL1A Binding Level (Late) [2]: 67 RU
B14: 320-530 (antibody, human IgG1, name in Kabat numbering, V domains shown)
VH: B1 VH with K55Y
VL: B1 VL
notes: as for B1

TL1A Binding Level (Early) [1]: 104 RU | TL1A Binding Level (Late) [2]: 97 RU
B15: 320-552 (antibody, human IgG1, name in Kabat numbering, V domains shown)
VH: B1 VH with K55S, T58H
VL: B1 VL
notes: as for B1

TL1A Binding Level (Early) [1]: 126 RU | TL1A Binding Level (Late) [2]: 115 RU
B16: 320-535 (antibody, human IgG1, name in Kabat numbering, V domains shown)
VH: B1 VH with K55S, G56H
VL: B1 VL
notes: as for B1

TL1A Binding Level (Early) [1]: 94 RU | TL1A Binding Level (Late) [2]: 83 RU
B17: 320-529 (antibody, human IgG1, name in Kabat numbering, V domains shown)
VH: B1 VH with K55W
VL: B1 VL
notes: as for B1

TL1A Binding Level (Early) [1]: 112 RU | TL1A Binding Level (Late) [2]: 103 RU
B18: 320-550 (antibody, human IgG1, name in Kabat numbering, V domains shown)
VH: B1 VH with K55S, T58Q
VL: B1 VL
notes: as for B1

TL1A Binding Level (Early) [1]: 62 RU | TL1A Binding Level (Late) [2]: 30 RU
B19: 320-555 (antibody, human IgG1, name in Kabat numbering, V domains shown)
VH: B1 VH with K55S, T58W
VL: B1 VL
notes: as for B1

TL1A Binding Level (Early) [1]: 172 RU | TL1A Binding Level (Late) [2]: 159 RU
B20: 320-539 (antibody, human IgG1, name in Kabat numbering, V domains shown)
VH: B1 VH with K55S, N57A
VL: B1 VL
notes: as for B1

TL1A Binding Level (Early) [1]: 9 RU | TL1A Binding Level (Late) [2]: 5 RU
B21: 320-559 (antibody, human IgG1, name in Kabat numbering, V domains shown)
VH: B1 VH with K55S, G59Q
VL: B1 VL
notes: as for B1

TL1A Binding Level (Early) [1]: 66 RU | TL1A Binding Level (Late) [2]: 51 RU
B22: 320-554 (antibody, human IgG1, name in Kabat numbering, V domains shown)
VH: B1 VH with K55S, T58L
VL: B1 VL
notes: as for B1

TL1A Binding Level (Early) [1]: 93 RU | TL1A Binding Level (Late) [2]: 86 RU
B23: 320-533 (antibody, human IgG1, name in Kabat numbering, V domains shown)
VH: B1 VH with K55S, G56Q
VL: B1 VL
notes: as for B1

TL1A Binding Level (Early) [1]: 138 RU | TL1A Binding Level (Late) [2]: 126 RU
B24: 320-543 (antibody, human IgG1, name in Kabat numbering, V domains shown)
VH: B1 VH with K55S, N57H
VL: B1 VL
notes: as for B1

TL1A Binding Level (Early) [1]: 121 RU | TL1A Binding Level (Late) [2]: 108 RU
B25: 320-528 (antibody, human IgG1, name in Kabat numbering, V domains shown)
VH: B1 VH with K55L
VL: B1 VL
notes: as for B1

TL1A Binding Level (Early) [1]: 54 RU | TL1A Binding Level (Late) [2]: 49 RU
B26: 320-538 (antibody, human IgG1, name in Kabat numbering, V domains shown)
VH: B1 VH with K55S, G56W
VL: B1 VL
notes: as for B1

TL1A Binding Level (Early) [1]: 94 RU | TL1A Binding Level (Late) [2]: 84 RU
B27: 320-541 (antibody, human IgG1, name in Kabat numbering, V domains shown)
VH: B1 VH with K55S, N57Q
VL: B1 VL
notes: as for B1

TL1A Binding Level (Early) [1]: 43 RU | TL1A Binding Level (Late) [2]: 12 RU
B28: 320-565 (antibody, human IgG1, name in Kabat numbering, V domains shown)
VH: B1 VH with K55S, G59Y
VL: B1 VL
notes: as for B1

TL1A Binding Level (Early) [1]: 97 RU | TL1A Binding Level (Late) [2]: 86 RU
B29: 320-542 (antibody, human IgG1, name in Kabat numbering, V domains shown)
VH: B1 VH with K55S, N57D
VL: B1 VL
notes: as for B1

TL1A Binding Level (Early) [1]: 74 RU | TL1A Binding Level (Late) [2]: 68 RU
B30: 320-548 (antibody, human IgG1, name in Kabat numbering, V domains shown)
VH: B1 VH with K55S, T58A
VL: B1 VL
notes: as for B1

TL1A Binding Level (Early) [1]: 120 RU | TL1A Binding Level (Late) [2]: 112 RU
B31: 320-544 (antibody, human IgG1, name in Kabat numbering, V domains shown)
VH: B1 VH with K55S, N57K
VL: B1 VL
notes: as for B1

TL1A Binding Level (Early) [1]: 84 RU | TL1A Binding Level (Late) [2]: 78 RU
B32: 320-553 (antibody, human IgG1, name in Kabat numbering, V domains shown)
VH: B1 VH with K55S, T58K
VL: B1 VL
notes: as for B1

TL1A Binding Level (Early) [1]: 66 RU | TL1A Binding Level (Late) [2]: 61 RU
B33: 320-531 (antibody, human IgG1, name in Kabat numbering, V domains shown)
VH: B1 VH with K55S, G56A
VL: B1 VL
notes: as for B1

TL1A Binding Level (Early) [1]: 14 RU | TL1A Binding Level (Late) [2]: 6 RU
B34: 320-561 (antibody, human IgG1, name in Kabat numbering, V domains shown)
VH: B1 VH with K55S, G59H
VL: B1 VL
notes: as for B1

TL1A Binding Level (Early) [1]: 44 RU | TL1A Binding Level (Late) [2]: 36 RU
B35: 320-551 (antibody, human IgG1, name in Kabat numbering, V domains shown)
VH: B1 VH with K55S, T58D
VL: B1 VL
notes: as for B1
